Data as given in publication PMC7235987 (ACS Catalysis, 2020).

What was measured:
Assay in all cases: SEC-MALS
[1] = target: CdChdC variant H118A (Corynebacterium diphtheriae) (UniProt Q6NGV6)
[2] = target: CdChdC variant H118A/Y135A (Corynebacterium diphtheriae) (UniProt Q6NGV6)
[3] = target: CdChdC variant Y135A (Corynebacterium diphtheriae) (UniProt Q6NGV6)
[4] = target: the molecule itself

Molecule “CdChdC variant H118A (from UniProt Q6NGV6 1-234) (enzyme)” has a stoichiometry N [1] of 5.

“CdChdC variant H118A/Y135A (from UniProt Q6NGV6 1-234) (enzyme)” gave a stoichiometry N [2] of 5.

“CdChdC variant Y135A (from UniProt Q6NGV6 1-234) (enzyme)” was tested, and the stoichiometry N [3] was 5.

B1: coproheme decarboxylase from Corynebacterium diphtheriae (CdChdC), wild-type (enzyme)
chain: MAEKLNFEELNSMQRYSQFAVFRAIPGALGSDRAEIVAQAQSFFDGLETAGKVEVRGIYDLAGCRAEADFMIWWIAEEFEEIQAAFARFRRETVLGQVSEVAWLGNSLHRPAEFNRSHLPSFIMGEIPGDWITVYPFVRSYDWYIMDPQKRRKILAEHGQAARDFPDVRANTVPAFALGDYEWMLAFEAPRLDRIVDLMHKMRYTEARLHVREETPFFTGRRVSEVSELVNVLP
With B1 the “stoichiometry N” value [4] was 5.
